Measured values published in patent US20170252403A1, “METHODS AND COMPOSITIONS FOR TREATING RETINAL DISORDERS” (AMARANTUS BIOSCIENCE HOLDINGS, INC., priority 2014, published 2017).
Where “and” joins values, the source holds several entries; their conditions need not be identical. Identical values can stand only once. Entries after “also recorded” stand apart in the source; their conditions may differ. Like-named read-outs stand apart in the source and are kept apart here.

Assays:
[1] = system: retinal ganglion cells (RGC); assay: Retinal ganglion cell survival (Brn3a immunohistochemistry on flat-mounted retinas) after retinal ischemia; settings: for Alive cells (BrN3A positive) in right eye, group Mean / Alive cells (BrN3A positive) in right eye, individual mean cells/mm^2: right injured eye; for Alive cells (BrN3A positive) in right eye, group Mean / Alive cells (BrN3A positive) in right eye, individual mean cells/mm^2 / RGC density, alive cells (BrN3A positive) in right eye: 7 days after ischemia; for Alive cells (BrN3A positive) in right eye, individual mean cells/mm^2: individual rats; for RGC density, alive cells (BrN3A positive) in right eye: 4 μL intravitreal once after reperfusion; for Alive cells (BrN3A positive) in right eye, group Mean / RGC density, alive cells (BrN3A positive) in right eye: group mean;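 for all read-outs here: sprague Dawley rats, right optic nerve vessels clamped 45 min then reperfused, Brn3a-stained RGC counted on flat-mounted retinas in cells/mm^2, 8 fields per retina, uninjured left eyes as naive controls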
Method: (§1) In this Example, retinal ischemia was induced by transient vascular clamping of the optic nerve in the right eyes of Sprague Dawley albino rats for 45 min. Reperfusion was initiated by the release of the clamp. Retinal function was evaluated by ERG at baseline and 7 days after ischemia. RGC survival was assessed by immunohistochemistry 7 days after ischemia.
(§2) Retinal ischemia was induced by vascular clamping of the optic nerve in the right eyes for 45 min. Reperfusion was initiated by the release of the clamp. Retinal function was evaluated by electroretinography (ERG) at baseline and 7 days after ischemia. Retinal Ganglion Cell (RGC) survival was assessed by immunohistology 7 days after ischemia.
To assess the effect of the treatment on RGC viability, the RGC density was evaluated 7 days after ischemia by immunohistochemistry with a stain for the RGC specific marker Brn3a.
After euthanasia, the right eyeballs were fixed in Formalin 4% (24 h at 4° C.), dissected and retinas were flat mounted. Two left eyes retinas per group were sampled and processed the same as the right eye retinas. They served as naïve controls. The flat mounted preparations were stained with an Alexa 594 conjugated anti-BRN3A (Brain-specific hoeobox/POU domain protein 3A, Chemicon, cat #mAb1585) to label RGC. Fluorescence images were recorded with Apotome microscope at magnification ×10 (Zeiss). RGC were counted with Image J software in 8 locations for each retina area (2 pictures per quarter). The cell count was reported in cell/mm^2.

[2] = system: retinal function after transient retinal ischemia (optic nerve clamping); assay: Electroretinography (ERG a-wave/b-wave amplitude) after retinal ischemia by optic nerve clamping
Method: as §1, §2
The functional status of the retina was evaluated by electroretinography one week after the ischemic insult and compared to baseline values determined just prior to optic nerve ischemia. The b-wave is induced by potassium efflux shunted from activated bipolar cells by Müller cells and is an electrophysiological indicator of inner retinal signal transmission. The ERG parameters applied were the following: Color: white maximum; Maximum intensity: 2.6 cd·s/m2 (0 dB); Duration 0.24 ms; Numbers of flashes: 1; Filter: 50 Hz; Impedance threshold: 90 kΩ.
Test and control items were injected intravitreally (4 μL) in right eye from anesthetized rat using a mix of xylazine/ketamine and a 30-G needle mounted on a syringe, immediately after reperfusion.
Reference item was intraperitoneally dosed using a 0.5 mL/kg volume of administration, 30 min before induction.
Right eyes underwent a temporal orbitectomy combined with periorbital stripping. The globe remained in the orbit and was completely isolated on a pedicle consisting of the optic nerve, ophthamociliary arteries and the venous outflow. A clamp placed around the pedicle initiated the global ocular ischemia when tightened.
Ischemia was maintained for 45 minutes. The reperfusion period was initiated by the release of the clamp.
ERG was recorded before ischemia (baseline) and 7 days after reperfusion in both eyes. The a-wave and b-wave amplitudes (μV) were measured for each ERG; the a-wave and b-wave amplitudes as a percentage of the baseline values obtained before ischemia. […] Mydriaticum (0.5% tropicamide) were instilled for pupillary dilatation.
ERG parameters: • Color: white maximum. • Maximum intensity: 2.6 cd·s/m2 (0 dB); Duration 0.24 ms; number of flash: 1. • Filter: 50 Hz. • Impedance Threshold: 90 kΩ.

[3] = General behavior and body weight in the rat retinal ischemia study; settings: for Body weight, sacrifice day, mean: Day 7, group mean
Method: The body weight of all animals was recorded before the start of the study, on Day 0 and at the end of the study (Day 7).
Each day, the general behavior and the aspect of all animals were observed.

[4] = system: ischemia of the brain (tMCAO); settings: cited from earlier work
[5] = system: eyes of pigmented rabbits; assay: 15-day ocular tolerance study after single intravitreal administration; format: in vivo, pigmented rabbit; settings: MANF 3 mg/mL, 100 μL single intravitreal
From the text: Ten female pigmented rabbits were divided into two groups of five animals each, corresponding to both treatments.
The eyes of the animals were examined by Split-lamp and assessed by using the McDonald-Shadduck's scale at Baseline and at Days 1, 3, 8 and 15. At the end of the in-life period on Day 15 both eyeballs of all animals were collected and processed for histology and microscopic examination.

[6] = system: primary mixed cortical/hippocampal neuronal cultures; settings: cultures exposed to the ER stressor tunicamycin; cited from earlier work
[7] = MANF 1.5 mg/mL intravitreal, treated right (ischemic) eye, individual rats

B1: mesencephalic astrocyte-derived neurotrophic factor (protein)
chain: GRFYQDLKDRDVTFSPATIENELIKFCREARGKENRLCYYIGATDDAATKIINEVSKPLAHHIPVEKICEKLKKKDSQICELKYDKQIDLSTVDTKKLRVKELKKILDDWGETCKGCAEKSDYIRKINELMPKYAPKAASARTDL
With B1 the “Alive cells (BrN3A positive) in right eye, group Mean” value (from here on “Alive cells … group Mean”) ([1]; MANF 0.15 mg/mL intravitreal) was 402.8 cells/mm^2, the “Alive cells (BrN3A positive) in right eye, individual mean cells/mm^2” value (shortened to “Alive cells … individual mean cells/mm^2”) ([1]; MANF 0.15 mg/mL intravitreal) was 469 cells/mm^2 and 722 cells/mm^2 and 636 cells/mm^2 and 471 cells/mm^2 and 456 cells/mm^2 and 374 cells/mm^2 and 161 cells/mm^2 and 432 cells/mm^2 and 408 cells/mm^2 and 448 cells/mm^2 and 47 cells/mm^2 and 210 cells/mm^2 and the “RGC density, alive cells (BrN3A positive) in right eye” value (“RGC density, alive cells” below) ([1]; MANF 0.15 mg/mL) was 403±189 cells/mm^2 and 402.8 cells/mm^2. The “Alive cells … group Mean” value ([1]; MANF 0.5 mg/mL intravitreal) was 464.9 cells/mm^2, the “Alive cells … individual mean cells/mm^2” value ([1]; MANF 0.5 mg/mL intravitreal) was 512 cells/mm^2 and 443 cells/mm^2 and 613 cells/mm^2 and 364 cells/mm^2 and 379 cells/mm^2 and 549 cells/mm^2 and 336 cells/mm^2 and 97 cells/mm^2 and 249 cells/mm^2 and 1209 cells/mm^2 and 105 cells/mm^2 and 724 cells/mm^2 and the “RGC density, alive cells” value ([1]; MANF 0.5 mg/mL) was 465±301 cells/mm^2 and 464.9 cells/mm^2. For the same molecule, the “Alive cells … group Mean” value ([1]; MANF 1.5 mg/mL intravitreal) was 487.7 cells/mm^2, the “Alive cells … individual mean cells/mm^2” value ([1]; MANF 1.5 mg/mL intravitreal) was 546 cells/mm^2 and 378 cells/mm^2 and 549 cells/mm^2 and 723 cells/mm^2 and 536 cells/mm^2 and 974 cells/mm^2 and 197 cells/mm^2 and 543 cells/mm^2 and 488 cells/mm^2 and 260 cells/mm^2 and 342 cells/mm^2 and 316 cells/mm^2 and the “RGC density, alive cells” value ([1]; MANF 1.5 mg/mL) was 488±214 cells/mm^2 and 488±14 cells/mm^2 and 487.7 cells/mm^2. The “Protection of RGC, in words” value ([1]; single intravitreal MANF at 0.15, 0.5 and 1.5 mg/mL, one-week reperfusion) was “a trend in protecting RGCs; also recorded: protecting RGC”, the “A-wave amplitude (μV), treated right eye” value ([2]; MANF 0.5 mg/mL intravitreal, Day 7, group mean) was −268.9 μV and the “A-wave Amplitude (μV) Day 7” value [2, 7] was −254 μV and −299 μV and −255 μV. The “B-wave Amplitude (μV) Day 7” value [2, 7] was 426 μV and 456 μV, the “Body weight, sacrifice day, mean” value ([3]; MANF 0.15 mg/mL intravitreal) was 343 g and the “Body weight, sacrifice day, mean” value ([3]; MANF 0.5 mg/mL intravitreal) was 345 g. For the same molecule, the “Body weight, sacrifice day, mean” value ([3]; MANF 1.5 mg/mL intravitreal) was 347 g, the “General behavior and appearance” value ([3]; daily observation during the study period, regardless the dose) was “not altered” and the “Reduction of infarct size” value ([4]; MANF expressed in the cortex using an AAV-based vector) was 40%. For the same molecule, the “Reduction of infarct size” value ([4]; day 2, compared to vehicle treated animals) was 50%, the “Effects on body weight, clinical observations or ophthalmic examinations” value ([5]; right eye, 15 days, McDonald-Shadduck scale) was “no treatment- or administration-related effects” and the Ocular tolerance ([5]; 15 days) was “macroscopically and microscopically well tolerated”. The “Histopathology evaluation of the eyes” value ([5]; Day 15) was “No pathological findings related to treatment” and the “Protection against tunicamycin (TUNEL-positive cells as marker of apoptosis)” value [6] was “fully protected”.
